Data published in US20030232325A1 (MOUNT SINAI SCHOOL OF MEDICINE OF NEW YORK UNIVERSITY, published 2003).

Assays:
[1] = biological target: T1, rabies virus M protein (form used not stated; discussion of Example 9, data not shown) (rabies virus, UniProt P16287 1-202); assay: far-western blot presumably; data not shown
T1 sequence: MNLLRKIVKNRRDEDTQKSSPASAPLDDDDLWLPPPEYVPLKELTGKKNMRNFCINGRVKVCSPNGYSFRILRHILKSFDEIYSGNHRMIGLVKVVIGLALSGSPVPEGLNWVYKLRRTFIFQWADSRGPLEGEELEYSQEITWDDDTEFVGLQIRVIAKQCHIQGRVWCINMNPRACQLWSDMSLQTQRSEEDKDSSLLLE

[2] = biological target: T2, NS1-BP fragment (amino acids 347 to 619) expressed from the HeLa cDNA library plasmid p59-1 (activation … (human, UniProt Q9Y6Y0 347-611)); assay: yeast interaction trap, lacZ reporter
T2 sequence: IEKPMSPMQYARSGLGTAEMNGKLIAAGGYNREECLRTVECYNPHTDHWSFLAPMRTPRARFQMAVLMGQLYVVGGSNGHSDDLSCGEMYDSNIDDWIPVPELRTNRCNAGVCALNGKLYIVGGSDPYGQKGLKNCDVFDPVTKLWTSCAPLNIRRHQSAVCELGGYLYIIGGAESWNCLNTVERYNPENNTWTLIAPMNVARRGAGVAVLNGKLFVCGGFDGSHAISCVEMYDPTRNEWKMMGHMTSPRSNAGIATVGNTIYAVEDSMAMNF

[3] = biological target: T3, NS1I-1 fragment expressed from the HeLa cDNA library plasmid pK5 (activation domain fusion) (human, UniProt P51659 266-736); assay: yeast interaction trap, lacZ reporter; pRFHM1 as control bait
T3 sequence: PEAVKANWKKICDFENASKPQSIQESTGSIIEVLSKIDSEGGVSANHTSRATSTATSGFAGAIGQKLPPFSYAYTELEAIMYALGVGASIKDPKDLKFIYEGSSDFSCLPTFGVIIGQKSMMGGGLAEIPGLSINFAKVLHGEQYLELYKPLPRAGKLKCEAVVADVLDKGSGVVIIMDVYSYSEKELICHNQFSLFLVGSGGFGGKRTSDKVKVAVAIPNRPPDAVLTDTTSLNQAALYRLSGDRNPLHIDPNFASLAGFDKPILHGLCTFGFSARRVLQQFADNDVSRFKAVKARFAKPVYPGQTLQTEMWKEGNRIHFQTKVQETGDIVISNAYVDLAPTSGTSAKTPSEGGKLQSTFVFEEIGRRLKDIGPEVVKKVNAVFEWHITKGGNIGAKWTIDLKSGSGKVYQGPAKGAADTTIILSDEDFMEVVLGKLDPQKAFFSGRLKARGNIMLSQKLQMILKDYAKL

Binder | binding result [1] | binding result [2] | binding result [3]
TGLPTPWTVRYSKSKKREYFFNPETKHSQWEEPEG (other, domain: WW) [WW domain from ESS 1] | no binding | – | –
LexA-bicoid fusion protein (encoded by pRFHM1) (other, also called LexA fused to a transcriptionally inert fragment of the Drosophila melanogaster bicoid protein) AQPPPDQNFYHHPLPHTHTHPHPHSHPHPHSHPHPHHQHPQLQLPPQFRNPFDLLFDERTGAINYNYIRPYLPNQMPKPEELPDSLVMRRPRRTRTTFTSSQIAELEQHFLQGRYLTAPRLADLSAKLALGTAQVKIWFKNRRRRHKIQSDQHKDQSYE | – | no binding | no binding
